The target of test [1] is T1, Human-NKP30-His (Kactus, cat: NKP-HM430) (human, UniProt O14931 19-138, limits assumed).
T1 construct: also called NKP30 protein; NKP30-his protein; not shown: His tag
T1 sequence (looked up): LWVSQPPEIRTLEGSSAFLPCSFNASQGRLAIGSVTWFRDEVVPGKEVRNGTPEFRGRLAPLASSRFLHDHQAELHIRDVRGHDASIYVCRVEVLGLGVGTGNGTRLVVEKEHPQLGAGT
The test can be described thus: ELISA: Human-NKP30-His coated at 0.2 µg/mL, antibody titrated 3-fold from 10 µg/mL (7 points), HRP goat anti-human IgG-Fc, OD450-OD570. As for the experimental part: (§1) Human-NKP30-His (Kactus, cat: NKP-HM430) was diluted to 0.2 μg/mL with PBS buffer at pH 7.4, added into the 96-well ELISA plate at 100 μL per well, coated overnight at 4° C., and blocked with 1% BSA blocking solution for 1 hour. The plate was washed 3 times with PBST, and the constructed expressing antibody was diluted to 10 μg/mL with 0.5% BSA sample diluent as the starting concentration, and then diluted by 3-fold gradient (7 gradients in total). A negative control (blank well and IgG1 isotype control) and a positive control were set, and the positive control was the NKP30 humanized antibody (sequence shown in SEQ ID No. 28), and incubated at 37° C. for 1 h at 100 μL per well. The plate was washed 3 times with PBST, and then HRP-labelled goat anti-human IgG-Fc was diluted with the sample diluent at 1:20000. 100 μL was added into each well, and incubated at room temperature for 1 hour. The plate was washed 4 times with PBST, and 100 μL of TMB substrate was added into each well, and incubated at room temperature without light for 10 minutes. 100 μL of 1 M HCl solution was added into each well to terminate the color development reaction. The absorbance value of each well in the 96-well plate was determined by selecting the wavelength of 450 nm and the reference wavelength of 570 nm on a multifunctional enzyme marker, and the absorbance value (OD)=OD₄₅₀ₙₘ−OD₅₇₀ₙₘ. The logarithm of the concentration of the constructed antibody was taken as the abscissa, and the measured absorbance value of each well was taken as the ordinate, and the Sigmoidaldose-response (Variable Slope) method (GraphPad Prism software, GraphPad Software, San Diego, California) was selected for nonlinear regression to obtain the binding curve of the target antibody to NKP30.

Test [2] addresses T2, huCD24-humanFC (Acro, cat: CD4-H5254) (human, UniProt P25063 27-59).
T2 construct: also called CD24 protein; not shown: human Fc
T2 chain (looked up): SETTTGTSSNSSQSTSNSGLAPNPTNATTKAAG
The test can be described thus: Bridging ELISA: huCD24-humanFC coated at 0.3 µg/mL, antibody titrated 3-fold from 20 µg/mL, then NKP30-his at 0.3 µg/mL, HRP anti-His antibody, OD450-OD570. On the procedure: The huCD24-humanFC (Acro, cat: CD4-H5254) was diluted to 0.3 μg/mL with PBS buffer at pH 7.4, added into the 96-well ELISA plate at 100 μL per well, coated overnight at 4° C., and blocked with 1% BSA blocking solution for 1 hour. The plate was washed 3 times with PBST, and the purified antibody was diluted to 20 μg/mL with 0.5% BSA sample diluent as the starting concentration, and then diluted by 3-fold gradient (11 gradients in total). An irrelevant antibody was set as the negative control and incubated at 37° C. for 1 h at 50 μL per well. The plate was washed 3 times with PBST, and the NKP30-his protein was diluted to 0.3 μg/mL. 100 μL was added into each well, and incubated at room temperature for 1 h. The plate was washed 3 times with PBST, and then HRP-labelled his antibody was diluted with the sample diluent at 1:5000. 100 μL was added into each well, and incubated at room temperature for 1 h. The plate was washed 4 times with PBST, 100 μL of TMB substrate was added into each well, and incubated at room temperature without light for 10 min. 100 μL of 1 M HCl solution was added into each well to terminate the color development reaction. The absorbance value of each well in the 96-well plate was determined by selecting the wavelength of 450 nm and the reference wavelength of 570 nm on a multifunctional enzyme marker, and the absorbance value (OD)=OD₄₅₀ₙₘ−OD₅₇₀ₙₘ. The logarithm of antibody concentration was taken as the abscissa, and the measured absorbance value of each well was taken as the ordinate, and the Sigmoidaldose-response (Variable Slope) method (GraphPad Prism software, GraphPad Software, San Diego, California) was selected for nonlinear regression to obtain the binding curve of the target antibody to CD24 and NKP30 proteins at both ends.

The target of test [3] is T1, Human-NKP30-His (Kactus, cat: NKP-HM430). The test can be described thus: ELISA: Human-NKP30-His coated, antibody titrated 3-fold from 10 µg/mL, HRP goat anti-human IgG-Fc, OD450-OD570. On the procedure: as §1, with “to […]” for “to 0.2 μg/mL”, “constructed antibodies were” for “constructed expressing antibody was”, “gradient (11” for “gradient (7”, “was a” for “was the”, “well. […]” for “well. The plate was washed 3 times with PBST, and then HRP-labelled goat anti-human IgG-Fc was diluted with the sample diluent at 1:20000. 100 μL was added into each well, and incubated at room temperature for 1 hour. The plate was washed 4 times with PBST, and 100 μL of TMB substrate was added into each well, and incubated at room temperature without light for 10 minutes. 100 μL of 1 M HCl solution was added into each well to terminate the color development reaction.”
In general terms: ELISA stands for enzyme-linked immunosorbent assay.

For a further test, the target named is T3, Human-GPC3-His (human, UniProt P51654 25-559, limits assumed).
T3 construct: Coated on the ELISA plate; also called GPC-3 protein; GPC3 protein; not shown: His tag
Put plainly: ELISA: Human-GPC3-His coated at 0.5 µg/mL, antibody titrated 3-fold from 10 µg/mL, HRP goat anti-human IgG-Fc, OD450-OD570. As for the experimental part:
Human-GPC3-His was diluted to 0.5 μg/mL with PBS buffer at pH 7.4, added into the 96-well ELISA plate at 100 μL per well, coated overnight at 4° C., and blocked with 1% BSA blocking solution for 1 hour. The plate was washed 3 times with PBST, and the constructed antibody was diluted to 10 μg/mL with 0.5% BSA sample diluent as the starting concentration, and then diluted by 3-fold gradient (11 gradients in total) and incubated at 37° C. for 1 h at 100 μL per well. The plate was washed 3 times with PBST, and then HRP-labelled goat anti-human IgG-Fc was diluted with the sample diluent at 1:20000. 100 μL was added into each well, and incubated at room temperature for 1 hour. A negative control (blank well and IgG1 isotype control) and a positive control were set, and the positive control was a GPC-3 and CD3 bispecial antibody from the literature Hs, A, et al. “Engineering a bispecific antibody with a common light chain: Identification and optimization of an anti-CD3 epsilon and anti-GPC3 bispecific antibody, ERY974.” Methods 154 (2019): 10-20. (The GPC-3 and CD3 bispecial antibody sequence consists of SEQ ID No. 22, SEQ ID No. 23, and SEQ ID No. 24). The plate was washed 4 times with PBST, and 100 μL of TMB substrate was added into each well, and incubated at room temperature without light for 10 minutes. 100 μL of 1 M HCl solution was added into each well to terminate the color development reaction. The absorbance value of each well in the 96-well plate was determined by selecting the wavelength of 450 nm and the reference wavelength of 570 nm on a multifunctional enzyme marker, and the absorbance value (OD)=OD₄₅₀ₙₘ−OD₅₇₀ₙₘ. The logarithm of the concentration of the constructed antibody was taken as the abscissa, and the measured absorbance value of each well was taken as the ordinate, and the Sigmoidaldose-response (Variable Slope) method (GraphPad Prism software, GraphPad Software, San Diego, California) was selected for nonlinear regression to obtain the binding curve of the target antibody to the GPC-3 protein.

T3 sequence (P51654 25-559 limits assumed): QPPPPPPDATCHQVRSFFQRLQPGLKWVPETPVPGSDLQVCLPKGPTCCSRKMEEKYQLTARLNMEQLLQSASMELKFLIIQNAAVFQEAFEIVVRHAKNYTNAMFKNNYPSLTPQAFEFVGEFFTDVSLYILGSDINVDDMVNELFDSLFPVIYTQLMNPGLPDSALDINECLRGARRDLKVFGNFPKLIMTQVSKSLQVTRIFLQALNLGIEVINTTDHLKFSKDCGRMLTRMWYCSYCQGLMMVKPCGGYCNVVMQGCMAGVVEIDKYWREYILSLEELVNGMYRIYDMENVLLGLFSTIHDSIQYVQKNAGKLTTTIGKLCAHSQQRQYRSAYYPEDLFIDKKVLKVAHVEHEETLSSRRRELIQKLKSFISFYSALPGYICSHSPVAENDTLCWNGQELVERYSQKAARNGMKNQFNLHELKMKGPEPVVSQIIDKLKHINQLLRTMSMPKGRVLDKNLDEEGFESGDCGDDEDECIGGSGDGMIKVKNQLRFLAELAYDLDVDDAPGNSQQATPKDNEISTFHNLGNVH

B1: DN15-D (bispecific antibody, human IgG1, kappa)
light: DIQMTQSPSTLSASVGDRVTITCSASSSVSSMHWYQQKPGKAPKLLIYSTSNLASGVPSRFSGSGSGTEYTLTISSLQPDDFATYYCHHWTSYMYTFGGGTKVEIKRTVAAPSVFIFPPSDEQLKSGTASVVCLLNNFYPREAKVQWKVDNALQSGNSQESVTEQDSKDSTYSLSSTLTLSKADYEKHKVYACEVTHQGLSSPVTKSFNRGEC
heavy 1: not shown
heavy 2: QVQLVQSGSELKKPGASVKVSCKASGYIFTDYAIHWVRQAPGQGLEWMGFINTATGEPTYADDFKGRFVFSLDTSVSTAYLQISSLKAEDTAVYFCTSGVHWGQGTLVTVSSASTKGPSVFPLAPSSKSTSGGTAALGCLVKDYFPEPVTVSWNSGALTSGVHTFPAVLQSSGLYSLSSVVTVPSSSLGTQTYICNVNHKPSNTKVDKKVEPKSCDKTHTCPPCPGGGGSGGGGSPALLLLLLLRPPATRGITCPPPMSVEHADIWVKSYSLYSRERYICNSGFKRKAGTSSLTECVLNKATNVAHWTTPSLKCIRDPALVHQRPAPPSTVTTAGVTPQPESLSPSGKEGGGGSGGGGSAPELLGGPSVFLFPPKPKDTLMISRTPEVTCVVVDVSHEDPEVKFNWYVDGVEVHNAKTKPREEQYNSTYRVVSVLTVLHQDWLNGKEYKCKVSNKALPAPIEKTISKAKGQPREPQVYTLPPSRDELTKNQVSLTCLVKGFYPSDIAVEWESNGQPENNYKTTPPVLDSDGSFFLASKLTVDKSRWQQGNVFSCSVMHEALHNHYTQKSLSLSPGKGGGGSGGGGSGGGGSGGGGSEVQLVESGGGLVQPGGSLRLSCAASGITFSRSVMGWFRQAPGKLRELVAGITSDDNTDYADSVKGRFTISRDNSKNTLYLQMNSLRAEDTAVYYCNILPDSRLGWGQGTLVTVSS
notes: Trifunctional antibody against CD24 and NKP30 with IL-15 and IL-15Rα sushi between CH1 and CH2; also called constructed antibody DN15-D; multifunctional antibody
Turning to B1, the binding result in test [1] was “binds”. Also, the EC50 (read off the curve) (commonly the concentration that produces a half-maximal response) in test [2] is around 0.2 µg/mL.

B2: GN15-A (bispecific antibody, human IgG1, kappa)
light: EVQLVESGGGLVQPGGSLRLSCAASGITFSRSVMGWFRQAPGKLRELVAGITSDDNTDYADSVKGRFTISRDNSKNTLYLQMNSLRAEDTAVYYCNILPDSRLGWGQGTLVTVSSGGGGSGGGGSGGGGSDVVMTQSPLSLPVTPGEPASISCRSSQSLVHSNRNTYLHWYLQKPGQSPQLLIYKVSNRFSGVPDRFSGSGSGTDFTLKISRVEAEDVGVYYCSQNTHVPPTFGQGTKLEIKRTVAAPSVFIFPPSDEQLKSGTASVVCLLNNFYPREAKVQWKVDNALQSGNSQESVTEQDSKDSTYSLSSTLTLSKADYEKHKVYACEVTHQGLSSPVTKSFNRGEC
heavy 1: not shown
heavy 2: QVQLVQSGAEVKKPGASVKVSCKASGYTFTDYEMHWVRQAPGQGLEWMGALDPKTGDTAYSQKFKGRVTLTADKSTSTAYMELSSLTSEDTAVYYCTRFYSYTYWGQGTLVTVSSASTKGPSVFPLAPSSKSTSGGTAALGCLVKDYFPEPVTVSWNSGALTSGVHTFPAVLQSSGLYSLSSVVTVPSSSLGTQTYICNVNHKPSNTKVDKKVEPKSCDKTHTCPPCPGGGGSGGGGSPALLLLLLLRPPATRGITCPPPMSVEHADIWVKSYSLYSRERYICNSGFKRKAGTSSLTECVLNKATNVAHWTTPSLKCIRDPALVHQRPAPPSTVTTAGVTPQPESLSPSGKEGGGGSGGGGSAPELLGGPSVFLFPPKPKDTLMISRTPEVTCVVVDVSHEDPEVKFNWYVDGVEVHNAKTKPREEQYNSTYRVVSVLTVLHQDWLNGKEYKCKVSNKALPAPIEKTISKAKGQPREPQVYTLPPSRDELTKNQVSLTCLVKGFYPSDIAVEWESNGQPENNYKTTPPVLDSDGSFFLASKLTVDKSRWQQGNVFSCSVMHEALHNHYTQKSLSLSPGK
notes: Trifunctional antibody against GPC-3 and NKP30 with IL-15 and IL-15Rα sushi between CH1 and CH2 of the two heavy chains; IgG1 knob/hole Fc; also called constructed antibody GN15-A; multifunctional antibody
Take B2: the results for the “EC50 (read off the curve)” value (in test [3]; in the test with Human-GPC3-His) were around 0.02 µg/mL and around 0.03 µg/mL, respectively.

Source of the values: patent publication US20240218065A1 (SHENGHE CHINA BIOPHARMACEUTICAL, published 2024).
